Results: patent US20210087281A1 (AGOMAB THERAPEUTICS, published 2021)

Legend:
human MET ECD [1] = biological target: T1, human MET ECD (human, UniProt P08581 25-932); assay: ELISA, MET ECD in solid phase, mAb 0-50 nM
T1 construct: range 1-932; recombinant ECD made by the applicants; the stated range begins at residue 1, so it includes the signal peptide of the entry; also called hMET; hMET ECD
Experimental: Using human MET as a template, we mutagenized each of these residues in different permutations, generating a series of MET mutants that are fully human except for specific residues, which are llama. Next, we tested the affinity of selected SEMA-binding mAbs (71D6, 71C3, 71D4, 71A3, 71G2) and PSI-binding mAbs (76H10 and 71G3) for these MET mutants by ELISA. To this end, the various MET proteins were immobilized in solid phase (100 ng/well in a 96-well plate) and then exposed to increasing concentrations of antibodies (0-50 nM) solution. […] Wild-type human MET was used as positive control.
TABLE 18 The epitopes of MET responsible for agonistic antibody binding represent residues conserved among H. sapiens, M. musculus, R. norvegicus, M. fascicularis but not among the same species and L. glama. The relevance of residues conserved among human, mouse, rat, cynomolgus monkey but not llama MET for binding to agonistic mAbs was tested by ELISA. Wild-type (WT) or mutant (MT) human MET ECD was immobilized in solid phase and exposed to increasing concentrations of mAbs in solution. […] All binding values were normalized to the WT protein and are expressed as % binding (EMAX) compared to WT MET.

[2] = biological target: T2, native human MET on living cells (human, UniProt P08581 25-1390); assay: flow cytometry, A549 cells
T2 construct: whole, on cells; also called Human cells (A549); HPAF-II
How it was run: (§1)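 Detection used a phycoerythrin-labelled anti-human IgG1 secondary and flow cytometry, measuring binding of chimeric antibodies to native MET on live A549 (human) or MLP29 (mouse) cells. Positive controls were a mouse anti-human MET and a goat anti-mouse MET antibody, each with a PE-labelled secondary.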

[3] = biological target: T3, native mouse MET on living cells (mouse, UniProt P16056 25-1379); assay: cell-based or functional assay
[4] = biological target: T2, native human MET on living cells; assay: cell-based or functional assay
mouse MET ECD = biological target: T4, mouse MET ECD (mouse, UniProt P16056 25-931); assay: ELISA, MET ECD in solid phase, mAb 0-20 nM
T4 construct: range 1-931; recombinant ECD made by the applicants; the stated range begins at residue 1; also called mMET; mMET ECD
How it was run: (§2)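 Solid-phase ELISA; analyte = protein A-purified chimeric llama/human IgG1 from transient mammalian transfection, titrated in solution onto immobilized MET ECD.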

human MET ECD [5] = biological target: T1, human MET ECD; assay: ELISA, MET ECD in solid phase, mAb 0-20 nM
How it was run: as §2

[6] = biological target: T3, native mouse MET on living cells; assay: cell-based or functional assay; remark: listed apart in the source
[7] = biological target: T2, native human MET on living cells; assay: cell-based or functional assay; remark: listed apart in the source
[8] = biological target: T5, human MET-Fc (R&D Systems) (human, UniProt P08581 25-932); assay: competition ELISA, hMET-Fc in solid phase, competitor 0.3 nM biotinylated hHGF
T5 construct: extracellular domain; bought chimeric protein; also called hMET; not shown: Fc portion of human IgG1
How it was run: (§3)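 An ELISA format measured how well mAbs (0-120 nM) displaced N-terminus-biotinylated HGF from plate-bound receptor. Results are given as the concentration producing 50% competition and as IMAX, the saturating maximum percentage.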

[9] = biological target: T6, mouse MET-Fc (R&D Systems) (mouse, UniProt P16056 25-929, limits assumed); assay: competition ELISA, mMET-Fc in solid phase, competitor 0.3 nM biotinylated mHGF
T6 construct: bought chimeric protein; also called mMET; not shown: Fc part
How it was run: as §3

[10] = biological target: T3, native mouse MET on living cells; assay: flow cytometry, MLP29 cells
How it was run: as §1

[11] = biological target: T3, native mouse MET on living cells; assay: cell-based or functional assay; remark: listed apart in the source
[12] = biological target: T2, native human MET on living cells; assay: cell-based or functional assay; remark: listed apart in the source
[13] = biological target: T3, native mouse MET on living cells; assay: cell-based or functional assay; remark: listed apart in the source
[14] = biological target: T2, native human MET on living cells; assay: cell-based or functional assay; remark: listed apart in the source
[15] = biological target: human MET ECD mutant H (mutations 2, 4) (human) (UniProt P08581); assay: ELISA, MET ECD in solid phase, mAb 0-50 nM
[16] = biological target: human MET ECD mutant E (mutations 2, 3, 4) (human) (UniProt P08581); assay: ELISA, MET ECD in solid phase, mAb 0-50 nM
[17] = biological target: human MET ECD mutant D (mutations 1, 2) (human) (UniProt P08581); assay: ELISA, MET ECD in solid phase, mAb 0-50 nM
[18] = biological target: human MET ECD mutant A (mutations 1, 2, 3) (human) (UniProt P08581); assay: ELISA, MET ECD in solid phase, mAb 0-50 nM

T1 sequence (P08581 25-932 limits assumed, form in doubt): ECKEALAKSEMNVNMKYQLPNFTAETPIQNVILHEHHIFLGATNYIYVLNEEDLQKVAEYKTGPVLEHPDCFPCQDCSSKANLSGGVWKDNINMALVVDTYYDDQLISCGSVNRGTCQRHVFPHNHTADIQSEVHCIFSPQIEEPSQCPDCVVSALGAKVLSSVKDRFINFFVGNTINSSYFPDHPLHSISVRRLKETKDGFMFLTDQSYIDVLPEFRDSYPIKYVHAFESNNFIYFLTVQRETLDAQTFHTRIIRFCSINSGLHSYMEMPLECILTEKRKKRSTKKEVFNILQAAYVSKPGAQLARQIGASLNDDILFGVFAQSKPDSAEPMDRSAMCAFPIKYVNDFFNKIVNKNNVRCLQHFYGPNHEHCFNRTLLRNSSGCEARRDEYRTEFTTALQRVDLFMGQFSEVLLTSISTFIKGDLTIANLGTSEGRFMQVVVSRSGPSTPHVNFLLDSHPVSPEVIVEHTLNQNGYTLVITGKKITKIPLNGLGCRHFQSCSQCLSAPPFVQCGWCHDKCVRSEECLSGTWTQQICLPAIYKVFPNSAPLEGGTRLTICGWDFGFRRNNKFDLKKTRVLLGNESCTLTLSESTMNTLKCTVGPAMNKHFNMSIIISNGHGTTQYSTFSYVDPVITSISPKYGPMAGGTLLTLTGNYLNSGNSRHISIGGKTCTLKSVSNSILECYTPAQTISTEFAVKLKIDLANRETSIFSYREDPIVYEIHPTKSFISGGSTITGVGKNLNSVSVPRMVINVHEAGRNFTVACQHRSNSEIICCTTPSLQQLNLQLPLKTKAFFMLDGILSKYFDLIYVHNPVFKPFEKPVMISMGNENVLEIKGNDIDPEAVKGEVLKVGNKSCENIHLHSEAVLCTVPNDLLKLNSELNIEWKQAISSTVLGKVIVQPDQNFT
T2 sequence (P08581 25-1390): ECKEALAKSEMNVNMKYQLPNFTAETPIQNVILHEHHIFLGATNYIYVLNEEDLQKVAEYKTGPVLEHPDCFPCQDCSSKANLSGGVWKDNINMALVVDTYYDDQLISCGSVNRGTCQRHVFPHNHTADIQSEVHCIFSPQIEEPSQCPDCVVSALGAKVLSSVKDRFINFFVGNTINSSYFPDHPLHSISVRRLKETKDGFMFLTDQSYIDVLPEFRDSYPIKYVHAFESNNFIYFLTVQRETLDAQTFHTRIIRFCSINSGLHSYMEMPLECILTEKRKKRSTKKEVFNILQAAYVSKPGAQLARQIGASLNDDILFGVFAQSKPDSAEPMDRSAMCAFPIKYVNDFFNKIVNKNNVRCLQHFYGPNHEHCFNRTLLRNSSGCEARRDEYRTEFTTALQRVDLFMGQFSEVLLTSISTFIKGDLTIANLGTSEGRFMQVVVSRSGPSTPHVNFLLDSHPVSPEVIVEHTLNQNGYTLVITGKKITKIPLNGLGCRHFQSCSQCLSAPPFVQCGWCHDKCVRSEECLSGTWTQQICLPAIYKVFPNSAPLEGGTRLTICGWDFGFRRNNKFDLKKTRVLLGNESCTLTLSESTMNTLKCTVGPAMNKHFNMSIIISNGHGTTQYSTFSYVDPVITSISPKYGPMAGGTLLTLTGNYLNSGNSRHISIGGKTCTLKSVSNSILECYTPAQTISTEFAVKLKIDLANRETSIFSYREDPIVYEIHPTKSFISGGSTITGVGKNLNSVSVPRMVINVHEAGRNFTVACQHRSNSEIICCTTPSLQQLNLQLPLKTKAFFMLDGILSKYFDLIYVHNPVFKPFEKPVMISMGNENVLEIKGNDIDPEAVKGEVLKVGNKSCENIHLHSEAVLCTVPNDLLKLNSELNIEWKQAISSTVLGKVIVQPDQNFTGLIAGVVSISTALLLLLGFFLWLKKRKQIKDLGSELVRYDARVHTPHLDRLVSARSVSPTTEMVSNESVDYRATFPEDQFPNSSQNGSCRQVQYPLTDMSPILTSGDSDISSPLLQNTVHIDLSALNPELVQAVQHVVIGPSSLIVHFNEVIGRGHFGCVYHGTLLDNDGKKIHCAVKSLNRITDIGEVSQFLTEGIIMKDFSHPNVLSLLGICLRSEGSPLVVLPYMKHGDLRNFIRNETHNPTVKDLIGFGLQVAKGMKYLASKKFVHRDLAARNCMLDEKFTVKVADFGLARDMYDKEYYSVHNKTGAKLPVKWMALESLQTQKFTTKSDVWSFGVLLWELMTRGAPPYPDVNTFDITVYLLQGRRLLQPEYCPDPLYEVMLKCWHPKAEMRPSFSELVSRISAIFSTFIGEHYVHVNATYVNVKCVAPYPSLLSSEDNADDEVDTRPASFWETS
T5 sequence (P08581 25-932): as the sequence (P08581 25-932 limits assumed, form in doubt) above

B1: 71D4 chimeric llama-human IgG1 mAb (antibody, V domains shown)
VH: ELQLVESGGGLVQPGGSLRLSCAASGFTFSGYGMSWVRQAPGKGLEWVSDINSGGGSTSYADSVKGRFTISRDNAKNTLYLQMNSLKPEDTAVYYCAKDMRLYLARYNDYEAWDYWGQGTQVTVSS
VL: SSALTQPSALSVTLGQTAKITCQGGSLGSSYAHWYQQKPGQAPVLVIYDDDSRPSGIPERFSGSSSGGTATLTISGAQAEDEGDYYCQSADSSGNAAVFGGGTHLTVL
notes: llama VH on human IgG1 CH1-CH2-CH3, llama VL on human lambda CL
% binding (EMAX) compared to WT MET (human MET ECD [1]): 100 % WT MET ECD | EC50 [2]: 0.371 nM | EMAX [2]: 107 % relative to control | protection from staurosporine, viability EC50, MLP29 cells [3]: 29.8 nM | protection from staurosporine, viability EMAX, MLP29 cells [3]: 52.1% | protection from staurosporine, viability EC50, MCF10A cells [4]: 30.2 nM | protection from staurosporine, viability EMAX, MCF10A cells [4]: 51.7% | EC50 (mouse MET ECD): 0.274 nM | EMAX (OD450) (mouse MET ECD): 1.17 AU | EC50 (human MET ECD [5]): 0.207 nM | EMAX (OD450) (human MET ECD [5]): 1.43 AU | phospho-MET ELISA EC50, MLP29 cells [6]: 0.51 nM | phospho-MET ELISA EMAX (% HGF activity), MLP29 cells [6]: 95.3% | phospho-MET ELISA EC50, A549 cells [7]: 0.59 nM | phospho-MET ELISA EMAX (% HGF activity), A549 cells [7]: 84.6% | IC50 [8]: 0.34 nM | IMAX [8]: 95.6% | IC50 [9]: 0.4 nM | IMAX [9]: 91.3% | EC50 [10]: 0.498 nM | EMAX [10]: 94.8 % relative to control | branches per spheroid, MLP29 cells, 0.5 nM [11]: 16 branches | branches per spheroid, MLP29 cells, 2.5 nM [11]: 14.7 branches | branches per spheroid, MLP29 cells, 12.5 nM [11]: 21.7 branches | branches per spheroid, LOC cells, 0.5 nM [12]: 9 branches | branches per spheroid, LOC cells, 2.5 nM [12]: 15.7 branches | branches per spheroid, LOC cells, 12.5 nM [12]: 18.7 branches | scatter score 0-4, MLP29, 0.001 nM [13]: 0 score | scatter score 0-4, MLP29, 0.004 nM [13]: 0 score | scatter score 0-4, MLP29, 0.012 nM [13]: 0 score | scatter score 0-4, MLP29, 0.037 nM [13]: 0 score | scatter score 0-4, MLP29, 0.111 nM [13]: 0 score | scatter score 0-4, MLP29, 0.333 nM [13]: 0 score | scatter score 0-4, MLP29, 1.000 nM [13]: 1 score | scatter score 0-4, MLP29, 3.000 nM [13]: 2 score | scatter score 0-4, MLP29, 9.000 nM [13]: 2 score | scatter score 0-4, HPAF-II, 0.001 nM [14]: 0 score | scatter score 0-4, HPAF-II, 0.004 nM [14]: 0 score | scatter score 0-4, HPAF-II, 0.012 nM [14]: 0 score | scatter score 0-4, HPAF-II, 0.037 nM [14]: 0 score | scatter score 0-4, HPAF-II, 0.111 nM [14]: 0 score | scatter score 0-4, HPAF-II, 0.333 nM [14]: 0 score | scatter score 0-4, HPAF-II, 1.000 nM [14]: 1 score | scatter score 0-4, HPAF-II, 3.000 nM [14]: 2 score | scatter score 0-4, HPAF-II, 9.000 nM [14]: 2 score | % binding (EMAX) compared to WT MET [15]: 58.7 % WT MET ECD | % binding (EMAX) compared to WT MET [16]: 57.2 % WT MET ECD | % binding (EMAX) compared to WT MET [17]: 120 % WT MET ECD | % binding (EMAX) compared to WT MET [18]: 114 % WT MET ECD
